A value given as a limit tells only on which side of the number the result lay.

This assay has as its target T1, bovine serum albumin cationized by reaction with ethylenediamine, net surface charge +78e (BSA +78e) (bovine, UniProt P02769 25-607, reacted with ethylenediamine; net surface charge +78e (±3e)).
T1 construct: bovine serum albumin (BSA), 66 kDa protein; Chemically surface-modified; DLS radius is 16 nm, from which the authors infer oligomers; also called positive BSA (+78e); cationized BSA; source: BSA modified by reaction with ethylenediamine (published procedure); chemicals bought: Sigma‐Aldrich unless mentioned otherwise
Description: MST; NanoTemper Monolith; about 10 μM mHttex1‐VC (target, mCherry fluorescence read) with different concentrations of BSA (ligand); within 1 h after cleaving MBP; apparent. The note with it: both partners purified.

B1: mutant huntingtin exon 1 (45Q) fused to mVenus/mCherry (mHttex1‐VC), after cleavage of MBP (domain or fragment)
chain: MATLEKLMKAFESLKSFQQQQQQQQQQQQQQQQQQQQQQQQQQQQQQQQQQQQQQQQQQQQQPPPPPPPPPPPQLPQPPPQAQPLLPQPQPPPPPPPPPPGPAVAEEPLHRP
For B1, the Kd is above 1000 µM.

These data come from article PMC12641570, “Surface‐modified protein crowders influence mutant huntingtin exon 1 aggregation via crowding effects, crowder association, and crowder solution stability” (Protein Science : A Publication of the Protein Society, 2025).
